Data from PMC9012456 (Science Advances, 2022).

B1: KaiC T432V mutant (KaiC-SV) (natural protein)
chain: MTSAEMTSPNNNSEHQAIAKMRTMIEGFDDISHGGLPIGRSTLVSGTSGTGKTLFSIQFLYNGIIEFDEPGVFVTFEETPQDIIKNARSFGWDLAKLVDEGKLFILDASPDPEGQEVVGGFDLSALIERINYAIQKYRARRVSIDSVTSVFQQYDASSVVRRELFRLVARLKQIGATTVMTTERIEEYGPIARYGVEEFVSDNVVILRNVLEGERRRRTLEILKLRGTSHMKGEYPFTITDHGINIFPLGAMRLTQRSSNVRVSSGVVRLDEMCGGGFFKDSIILATGATGTGKTLLVSRFVENACANKERAILFAYEESRAQLLRNAYSWGMDFEEMERQNLLKIVCAYPESAGLEDHLQIIKSEINDFKPARIAIDSLSALARGVSNNAFRQFVIGVTGYAKQEEITGLFTNTSDQFMGAHSITDSHISVITDTIILLQYVEIRGEMSRAINVFKMRGSWHDKAIREFMISDKGPDIKDSFRNFERIISGSPTRITVDEKSELSRIVRGVQEKGPES

Experiments:
[1] = biological target: B1; assay: SEC-MALS
crystal structure = biological target: the molecule itself; assay: crystal structure

| binding result [1] | Binder | stoichiometry N (crystal structure) | other results |
| --- | --- | --- | --- |
| binds | KaiA (natural protein) MLSQIAICIWVESTAILQDCQRALSADRYQLQVCESGEMLLEYAQTHRDQIDCLILVAANPSFRAVVQQLCFEGVVVPAIVVGDRDSEDPDEPAKEQLYHSAELHLGIHQLEQLPYQVDAALAEFLRLAPVETMADHIMLMGANHDPELSSQQRDLAQRLQERLGYLGVYYKRDPDRFLRNLPAYESQKLHQAMQTSYREIVLSYFSPNSNLNQSIDNFVNMAFFADVPVTKVVEIHMELMDEFAKKLRVEGRSEDILLDYRLTLIDVIAHLCEMYRRSIPRET |  |  |
| binds | KaiB (natural protein) MSPRKTYILKLYVAGNTPNSVRALKTLKNILEVEFQGVYALKVIDVLKNPQLAEEDKILATPTLAKVLPLPVRRIIGDLSDREKVLIGLDLLYGELQDSDDF |  |  |
|  | KaiC-pSpT (KaiC fully phosphorylated at S431 and T432) (natural protein, phosphorylated S431 (pS431), phosphorylated T432 (pT432)) MTSAEMTSPNNNSEHQAIAKMRTMIEGFDDISHGGLPIGRSTLVSGTSGTGKTLFSIQFLYNGIIEFDEPGVFVTFEETPQDIIKNARSFGWDLAKLVDEGKLFILDASPDPEGQEVVGGFDLSALIERINYAIQKYRARRVSIDSVTSVFQQYDASSVVRRELFRLVARLKQIGATTVMTTERIEEYGPIARYGVEEFVSDNVVILRNVLEGERRRRTLEILKLRGTSHMKGEYPFTITDHGINIFPLGAMRLTQRSSNVRVSSGVVRLDEMCGGGFFKDSIILATGATGTGKTLLVSRFVENACANKERAILFAYEESRAQLLRNAYSWGMDFEEMERQNLLKIVCAYPESAGLEDHLQIIKSEINDFKPARIAIDSLSALARGVSNNAFRQFVIGVTGYAKQEEITGLFTNTSDQFMGAHSITDSHISTITDTIILLQYVEIRGEMSRAINVFKMRGSWHDKAIREFMISDKGPDIKDSFRNFERIISGSPTRITVDEKSELSRIVRGVQEKGPES | 6 |  |
|  | KaiC-pST (KaiC phosphorylated at S431 only) (natural protein, phosphorylated S431 (pS431)) MTSAEMTSPNNNSEHQAIAKMRTMIEGFDDISHGGLPIGRSTLVSGTSGTGKTLFSIQFLYNGIIEFDEPGVFVTFEETPQDIIKNARSFGWDLAKLVDEGKLFILDASPDPEGQEVVGGFDLSALIERINYAIQKYRARRVSIDSVTSVFQQYDASSVVRRELFRLVARLKQIGATTVMTTERIEEYGPIARYGVEEFVSDNVVILRNVLEGERRRRTLEILKLRGTSHMKGEYPFTITDHGINIFPLGAMRLTQRSSNVRVSSGVVRLDEMCGGGFFKDSIILATGATGTGKTLLVSRFVENACANKERAILFAYEESRAQLLRNAYSWGMDFEEMERQNLLKIVCAYPESAGLEDHLQIIKSEINDFKPARIAIDSLSALARGVSNNAFRQFVIGVTGYAKQEEITGLFTNTSDQFMGAHSITDSHISTITDTIILLQYVEIRGEMSRAINVFKMRGSWHDKAIREFMISDKGPDIKDSFRNFERIISGSPTRITVDEKSELSRIVRGVQEKGPES | 6 |  |
|  | B1 |  | binding result (crystal structure): binds |
